From the RNAGym collection of RNA variant scans (doi:10.1073/pnas.2313332121)
Variants at the floor of the assay were thinned out.

B1: TPR 5TU (parent)
chain: GGAUCUUCUCGAUCUAACAAAAAAGACAAAUCUGCCACAAAGCUUGAGAGCAUCUUCGGAUGCAGAGGCGGCAGCCUUCGGUGGCGCGAUAGCGCCAACGUUCUCAACUAUGACACGCAAAACGCGUGCUCCGUUGAAUGGAGUUUAUCAUG

Variants of: B1
Assay: polymerase ribozyme fitness, log enrichment relative to wild type (log ratio); higher = more active; in vitro selection for triplet polymerase activity
Outline: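 Mutant libraries for each subunit of a heterodimeric triplet polymerase ribozyme were made by PCR and then transcribed. Each library underwent one round of in vitro selection in triplicate: annealing with a biotinylated primer, the partner subunit and triplets, frozen incubation at −7 °C, gel excision of extended constructs, streptavidin-bead capture and RT-PCR. Input and output libraries were Illumina-sequenced, and only genotypes with ≥10 input reads and ≥1 read per output were kept. Fitness is the logarithm, base 2, of genotype enrichment over wild-type enrichment, computed from inverse-variance-weighted replicate averages.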

Polymerase ribozyme fitness (log ratio), -3.83:
U44G U135A

Polymerase ribozyme fitness (log ratio), -2.56:
U45A C96A

Polymerase ribozyme fitness (log ratio), -4.19:
U44A C76U

Polymerase ribozyme fitness (log ratio), -4.15:
C43U G86U
C43U C95A

Polymerase ribozyme fitness (log ratio), -3.97:
G42C C85U

Polymerase ribozyme fitness (log ratio), -4.06:
U45A G92A U127C G128A U130G

Polymerase ribozyme fitness (log ratio), -2.81:
U45A C93U A147U

Polymerase ribozyme fitness (log ratio), -3.88:
U45A U55A C93U

Polymerase ribozyme fitness (log ratio), ≤ -4.2:
U44A A52C C54A G92A G141C
U44A U53A C79G C85G A119G U135G
U44G C75U A89G
C43G G50C G62A G84A G92C
U45A C54U U61A C85U
U44G G88C C108G U144C C149U
U44A C85U U139C
U45A U148G C149G
U44A A47C
C43A C75U A106U C108U C123G G141A
C43G G50C C85A C96A C108U G124A
C43U G59C U77A U111C
C43U U55A C87U
U44C C85A A91U U127G
U44A G58A C93U C96G A97G A98U A119G U144C A150U
C43A U53A U55A G74A C76A G88U A142G
C43U A91U A98G C99U U102G
G42U U44G A60G G71A G86A A106U U134G U135C
U45A A91C C95G A142U
G42C U56G U144A
G42U A73G U78G C93A U146A
U44A A89U G92C C95U
G42U A47G C99G C116U
U45A C69A G88C A97C C125G
U44A A49U C54U G59U G92A A106U
U44G A60U C99G U111G G141C
C43U A73G C79A U134A
G42U A60G U61G C96G C99G C125U A150C
C43U A47U G59A C75A C93U G126C G133A
U45A A52C
U45A G86A A142G
U44A C57G C69G G80C U82A C108A U109G G141C
U44G A52C G92U G141A
G42C G46A G68C C95A A106U C108G
U45A G59U G74U A121G G141A
U45A G65A G86U
C43G G83U A97U U104C C116U A137C
G42C U55A G70C C96U
C43U A49C C96A A107C A113U
U45A C51A G84A
U44G C54G C76G C85A
G42U A91G G128U G133A
U44G G58C G59C U61A G94C
U44A U53C G86A A147C
C43U G81C G88A G133C
G42C C95A A142C
U45A U102C C105U A119C G143A
U45A G84U C108G
G42C G62U A64C G71A C79G C132G U139G U146G
U45A C85A C87G C114A A137C
U44G C93U A137G U148C
U45C G48C C99A G143A U148C
G42U U45A U56A G83A A121U
C43U C57G G70A A89G C93U
U44A G88A A120U
U44A G88A A120G
U45A A60G G94A C95G U144C U151G
U45C A49C G70C G83C A137C U144C
G42C G62C A73C G94U C118G A120U G133C
U45A U77A C87U U90G G92C G126A A138G
U44G A89U U144C
C43A U53A C57A C95U
G42C G48A C75G C96U U104A
C43U G83U G92A
U45A A49C G84A
U44A U53G G67A U78A G81C G88A G92C A138U
G42U G84U U134C U139G
U45C G80C C85U C87G G92A U144G
U44G C75G G88C
U45C C57G G59U A66U G94A
U44A C72U A73G G86U A138C
U44A C72G C79A A150C
C43U A106G
G42C U82G U104A C116U A137G G152A
U45A A47U G80U U90A
U44A U53G C105U C116G G141C
U45A U77G G83C U146A
U45A C72U
U44G U56A C79A G124U
C43U G84U A113U
U44A G50A C79A C99U U102G C108U
G42C G84U A138G U146G
G42U G71U G88U G92C A97C A122G U134C
U44A U61G A66C A91U C132U G141C
U45A A66U G71A
C43U C54A U55C C85U C99G A147G
U44A U55A C63G C85U C87G G92U
G42C G88U C95A
G42U U45C C72U C85G A98G A106C G117U
U45A C51U G74A C95A U135G
C43U A47G A64C G67U C96U G141A
G42C C105G
C43A A47C U53A A91G
U44C G83C U148A
U44G G58U A98G U144A
G42C U44G A49U U56C G94U U111C G143A
C43A C57U C76G C85A G86A G140A
U44A G80A A121U U144A
G42C U90C U109A
U44G G48A G84A
G42U A98U U102G A120U C132G U135A A147C
U44G A91C G126A G143C
C43U C51A C85U A107U U135C
U44A G62U G80C G140C
G42U A47C C87A U104G A107G
U44A U53A G58U G83U U102G A122U
U44G G92U
U44G A73U C85U U109G
U44A C87A U90C C93G C105G A122G
U44A C79G C85A U111G G133C
G42C C76U C85U A89G U104C
U45C G70C A91G C99U G136C
U44A U77A C95A G143A
G42C G48A C103A U144C
U45A C99A
U44A G48A G58C G83A
U44G A47C A66G G67A C87A C96G U145A
C43A A52C G94A
G42U G84U G117U C118G A142G
C43U G50U U109A A150U
U44C G50U U101G C131U U139C C149U
C43G C54A U55A A73G G74C G124C
C43U G62A A119U U134A
C43U A52U C85G G133U
C43A C57G G84A
C43A A52C C75U U90G C95U C96G C114G U144G
U44G U45G C72G
U45A G83U C85G C95U
C43U C54G G92A U148G C149U
U45A G65C A73G G84A A142G
U44A U45A C51U C95A C103G
U44A C87A G126U
C43U U45A C63U G81A C95G U111A
C43G C57A G59C C72A C79A A138G U145A
U44A U104A A115G
U45A A52U U56A C76U
C43G U55A U61G G86A A89G A122U
C43U G68A G86U
C43A U53G U56G A97U A137G
U44A G50C U53A C87A A106G A107U
U45A G58A G59C A60G G133A

Polymerase ribozyme fitness (log ratio), -3.79:
C43U C57U

Polymerase ribozyme fitness (log ratio), -4:
U45A C76U A98U G100C U101G A106U
U44C G59A A91U

Polymerase ribozyme fitness (log ratio), -3.41:
U45A G92C U144A

Polymerase ribozyme fitness (log ratio), -3.93:
U45A A47C

Polymerase ribozyme fitness (log ratio), -3.51:
U45A G126U

Polymerase ribozyme fitness (log ratio), -4.13:
G42U C108U C125U A138U U148A

Polymerase ribozyme fitness (log ratio), -4.11:
C43G G94A G133U A137U

Polymerase ribozyme fitness (log ratio), -4.17:
G42U A106C
U44A C85U

Polymerase ribozyme fitness (log ratio), -3.18:
U45A C63U A121C

Polymerase ribozyme fitness (log ratio), -3.11:
U45A C57A C96U G124A

Polymerase ribozyme fitness (log ratio), -3.08:
U45A G117U

Polymerase ribozyme fitness (log ratio), -3.1:
U45A C85U

Polymerase ribozyme fitness (log ratio), -2.44:
U45A C116U

Polymerase ribozyme fitness (log ratio), -2.15:
U45A G126A

Polymerase ribozyme fitness (log ratio), -2.86:
U45A C96U
